Measurements taken from the Human Domainome abundance scans (Beltran et al. 2025).

B1: Death-inducer obliterator 1, residues 263 to 321; numbered along this chain, Q9BTC0 (parent)
chain: GYDPNALYCICRQPHNNRFMICCDRCEEWFHGDCVGISEARGRLLERNGEDYICPNCTI
B2: Homeobox protein SIX6, residues 134 to 184; numbered along this chain, O95475 (parent)
chain: CFKERTRHLLREWYLQDPYPNPSKKRELAQATGLTPTQVGNWFKNRRQRDR

Variants of: B1
Assay: abundance fitness (aPCA) (normalised: wild type 0, dead -1); higher = more abundant; growth selection in yeast, the domain comes from the species named
Conditions: Homo sapiens

Abundance fitness: each site, then its substitutions
L44: V -0.045 | W -0.015 | Y -0.028
L45: C -0.062 | D -0.01 | E 0.075 | F -0.295 | G -0.068 | H 0.152 | I -0.214 | K -0.173 | M -0.096 | P -0.014 | R -0.005 | S 0.033 | T -0.08 | V 0.016 | W -0.14 | Y -0.055
E46: A 0.163 | C 0.155 | F -0.16 | G -0.089 | H -0.663 | I -0.265 | K 0.079 | L -0.109 | M -0.055 | N -0.009 | P -0.189 | Q -0.218 | R 0.021 | S -0.064 | T 0.106 | V 0.044 | W -0.265 | Y 0.065
R47: A 0.083 | D 0.268 | E -0.043 | F -0.204 | G 0.111 | I 0.058 | K 0.359 | L 0.079 | M -0.155 | N -0.05 | P 0.186 | Q -0.346 | S 0.037 | T 0.134 | V 0.188 | W -0.062 | Y -0.286
G49: A 0.052 | C -0.216 | D -0.299 | E 0.283 | F -0.243 | H 0.1 | I -0.016 | K 0.163 | L -0.089 | M -0.002 | N 0.11 | Q -0.145 | R -0.066 | S 0.173 | T -0.047 | V -0.199 | W -0.462 | Y 0.01
E50: A -0.011 | C -0.461 | D -0.005 | F -0.019 | G -0.046 | H -0.006 | I -0.14 | K 0.04 | L -0.201 | M -0.157 | N -0.027 | P 0.068 | R -0.273 | S -0.192 | T 0.037 | V -0.041 | W -0.356 | Y -0.58
D51: A 0.142 | C -0.094 | E 0.029 | F -0.203 | G 0.088 | H -0.169 | I -0.135 | K -0.216 | L -0.332 | M -0.367 | N -0.18 | P -0.289 | Q 0.135 | R 0.013 | S 0.07 | T -0.004 | W -0.612 | Y 0.177
Y52: C -0.275 | E -0.172 | F 0.009 | G -0.357 | H -0.493 | I -0.196 | K -0.181 | L -0.032 | M -0.598 | N -0.334 | Q -0.256 | R -0.227 | S -0.235 | T -0.03 | V -0.151 | W 0.09
I53: A 0.059 | C 0.063 | E 0.172 | G -0.136 | H -0.093 | K 0.355 | L 0.132 | M 0.269 | N 0.328 | P -0.419 | Q -0.03 | R -0.024 | S 0.02 | V -0.028 | Y 0.149
C54: D -0.999 | E -0.781 | G -1.15 | H -0.245 | I -1 | K -0.571 | L -1.19 | M -0.991 | N -0.811 | P -0.821 | Q -0.405 | S -0.723 | T -0.65 | V -0.674 | Y -1.24
P55: A 0.078 | C -0.098 | D -0.66 | E -0.116 | F -0.4 | G -0.531 | H -0.04 | I -0.156 | K 0.265 | L -0.011 | M -0.112 | N -0.365 | Q 0.109 | R 0.019 | T 0.083 | Y -0.245
N56: A -0.037 | C -0.014 | E -0.007 | G 0.064 | H -0.048 | K -0.525 | L -0.22 | M -0.138 | P -0.121 | Q -0.155 | R -0.126 | S 0.122 | T -0.01 | W -0.002 | Y 0.021
C57: A -1.04 | D -0.498 | E -0.483 | G -1.12 | H -0.206 | I -1.06 | L -0.705 | M -0.989 | N -0.582 | P -0.828 | Q -0.842 | R -0.769 | S -0.848 | T -0.509 | V -0.904 | W -0.992 | Y -0.903
T58: A 0.084 | C 0.194 | D 0.138 | F -0.264 | G -0.006 | H 0.046 | I 0.111 | K 0.123 | L 0.127 | M -0.115 | P 0.014 | R 0.3 | S 0.047 | V -0.055 | Y -0.289
I59: A 0.001 | D 0.618 | F -0.122 | G -0.218 | H -0.14 | K 0.424 | L -0.077 | M 0.026 | N 0.329 | R -0.046 | S -0.015 | V 0.279 | W -0.414

Variants of: B2
Assay: as above
Conditions: Homo sapiens

Abundance fitness, by site and new letter:
C1: F 0.095 | G 0 | S 0.116
F2: A -0.111 | C 0.025 | D 0.05 | E 0.102 | G -0.017 | H -0.013 | I 0.179 | K 0.247 | L -0.023 | M 0.192 | N 0.333 | P -0.383 | Q -0.182 | R -0.407 | S 0.256 | T 0.196 | V -0.255 | W -0.369 | Y -0.11
K3: A -0.19 | C -0.06 | D 0.122 | E -0.083 | F -0.095 | G -0.358 | I -0.17 | L -0.181 | M -0.171 | N -0.196 | P -0.1 | Q -0.402 | R -0.118 | S 0.295 | T 0.201 | V -0.562 | W -0.298 | Y -0.672
E4: C -0.55 | D 0.017 | F -0.56 | G -0.448 | H -0.587 | I -0.335 | K -0.125 | L -0.271 | M -0.131 | N -0.03 | P -0.741 | Q -0.277 | R -0.361 | S -0.276 | T -0.362 | V -0.5 | W -0.354 | Y -0.012
R5: A -0.377 | D 0.116 | E 0.068 | G 0.082 | I -0.172 | K -0.263 | L -0.175 | M 0.078 | N -0.075 | P -0.355 | Q -0.74 | S 0.191 | T 0.159 | V -0.315 | W -0.558 | Y -0.221
T6: A -0.036 | C -0.76 | D -0.45 | E -0.619 | F -0.691 | G -0.24 | H -0.356 | I 0.36 | K -0.368 | L -0.095 | M -0.042 | N -0.498 | Q -0.168 | R -0.3 | S -0.174 | V 0.173 | W -0.182 | Y -0.45
R7: A 0.033 | C -0.306 | D 0.167 | E 0.236 | F -0.221 | G -0.22 | I 0.073 | K 0.126 | L 0.051 | M 0.073 | N -0.138 | P -0.359
